Results on two molecules are retold here after patent US10125184B2, “Apolipoprotein E polypeptides and their use” (priority 2011, dated 2018).

Like-named read-outs stand apart in the source and are kept apart here.

Data set [1] can be described thus: DMPC binding assay (turbidity OD490nm). On the procedure:
FIGS. 3A-3C. Both hEP and mEP mediate plasma cholesterol clearance through hepatic lipoprotein receptors. (A) DMPC binding assay was conducted as described in the examples section. The turbidity of DMPC vesicle solution was monitored by OD490 nm. The curves were representative of two independent experiments. (B) HEK293T cells were loaded with DiI-LDL (5 μg/ml) along with apoE peptide-DMPC particles which competed with DiI-LDL for LDLR binding and LDLR-mediated endocytosis (for 30 min) n=3 for each group. (C) Each peptide (100 μg in 100 μl PBS) was retro-orbitally injected into 6-month-old apoE−/− mice (two mice each group). PBS (100 μl) was injected into two other mice as control. Before (set as 0 min time point) and 5 min, 30 min, 1 h, 2 h, and 4 h after the peptide or PBS injection, 30 μl blood samples were drawn for plasma cholesterol measurement using total Cholesterol Reagent Kit (Raichem, San Diego, Calif.).
1,2-dimyristoyl-sn-glycero-3-phosphatidylcholine (DMPC) (Avanti Polar Lipids Inc., Alabaster, Ala.) was dissolved in chloroform: methanol (3:1, v/v). It was dried thoroughly under a stream of N2. The dried lipid sample was dispersed in pre-warmed buffer (10 mM Tris-HCl, pH7.2; 150 mM NaCl; 0.5 mM EDTA) to final lipid concentration of 10 mg/ml, vortexed for 1 min, and sonicated 10 times at lowest power for 10 seconds at 24° C. The peptide solution, lipid solution and buffer were all maintained at 23.9° C. One milliliter buffer and 250 μg (25 μl lipid solution) were added in a quartz cuvette, and let equilibrate for 10 min, resulting in a turbid DMPC vesicle solution. Peptide solution (250 μg in 100 μl) was then added to turbid solution in the cuvette, the solution was mixed immediately, and the change of turbidity was monitored by OD at 490 nm as a function of time. If the peptide binds to DMPC vesicles, the large DMPC vesicles will be transformed into smaller DMPC-peptide particles, reducing the turbidity of the solution.

The subject of another data set is JFH-1 HCVcc-Luc. On the procedure: FIGS. 1A-1C. […] (A) Schematic illustration of apoE protein domains and the amino acid sequences of hEP and mEP peptides. The amino acid sequences shown are hEP-1 (SEQ ID NO: 6) and mEP (SEQ ID NO: 20). […] Huh7.5.1 cells were infected with JFH-1 HCVcc-Luc (MOI˜0.5) in the presence of hEP or mEP for 2 hours. After removal of virus and peptides, cells were further incubated for 48 hours prior to luciferase assay. Data are presented as % inhibition relative to control infections in which cells were treated with DMSO (0%). Results are expressed as mean±standard deviation (s.d.) (n=3). (C). Huh7.5.1 cells were treated with hEP or DMSO at indicated doses for 48 hours. The effect of hEP on cell viability was measured by a CellTiter Glo assay kit.
FIGS. 7A-7E. Mapping the anti-viral activity of hEP. In (A) and (B), HCVcc-luc was first mixed with indicated peptides (20 μg/ml, 2.7 μM) and then incubated with Huh7.5.1 cells for two hours at 37° C. to initiate infection. After additional 48 hours incubation, luciferase activity was measured. Results are presented as fold of inhibition relative to infections containing DMSO (n=5, mean±sd). (C) 20 μg of hEP-2 or hEP-2/ΔCys were resuspended in PBS and kept at room temperature for 30 minutes. Peptides were then mixed with 2×SDS-sample buffer without DTT and boiled for 5 minutes. Alternatively, samples were simply left unboiled or mixed with sample buffer containing DTT (2 mM). Peptide samples were then subjected to electrophoresis on a 16% tricine non-reducing gel (Invitrogen). […] (D) and (E) Mass spectrometric analysis of hEP-2 or hEP-2/ΔCys.
Detailed procedures involving the production and use of HCVpp and HCVcc have been published elsewhere (Liu et al., J Virol 2009; 83:2011-2014; Yang et al., Hepatology 2008; 48:1396-1403; Yang et al., J Biol Chem 2008; 283:8643-8653). Production procedure of HCVcc expressing firefly luciferase that was inserted between NS5A and NS5B (JFH-1 strain) was described elsewhere (Liu et al., Virology 2010; 407:160-170). Unless otherwise indicated, viruses were typically added to cells for two hours before removal. Cells were incubated for additional 48 hours followed by luciferase assay. When purification was needed, HCVcc were subjected to ultracentrifugation (SW41, 28,000×g) for 4 hours through a 20% sucrose cushion. Deidentified human sera, collected from five patients containing high-titer HCV (HCVser), were obtained.

The next data set deals with Huh7.5.1 cells. In words: Cytotoxicity/cell viability assay (CellTiter-Glo). It counts as cell-based. Conditions: 48 hours; hEP up to 100 μg/ml (~14 μM). How it is done: FIGS. 1A-1C. A human apoE derived peptide (hEP) suppresses HCV infection. (A) Schematic illustration of apoE protein domains and the amino acid sequences of hEP and mEP peptides. The amino acid sequences shown are hEP-1 (SEQ ID NO: 6) and mEP (SEQ ID NO: 20). (B) Dose dependent inhibition of HCVcc infection by hEP. Huh7.5.1 cells were infected with JFH-1 HCVcc-Luc (MOI˜0.5) in the presence of hEP or mEP for 2 hours. After removal of virus and peptides, cells were further incubated for 48 hours prior to luciferase assay. Data are presented as % inhibition relative to control infections in which cells were treated with DMSO (0%). Results are expressed as mean±standard deviation (s.d.) (n=3). (C). Huh7.5.1 cells were treated with hEP or DMSO at indicated doses for 48 hours. The effect of hEP on cell viability was measured by a CellTiter Glo assay kit.
Huh7.5.1 cells (10^5 per well) were treated with hEP or DMSO at various concentrations for 48 hours in 24-well plates. The numbers of viable cells in culture were determined using the CELLTITER-GLO® Cell Viability Luminescent Assay kit according to the manufacturer's instruction (Promega).
A general note: Cellular ATP, detected with luciferase, serves as a proxy for viable cell number.

On to “EELRVRLASHLRKLRKRLLRDADDLQKRLAVYEEQAQQIRLQAEAFQARLKSWFEPLVEDM [hEP-1]”, for which, in data set [1] (reduction (percentage) of turbidity (OD490nm) of DMPC solution, plateau 10 minutes after addition of peptide), the DMPC binding result was “+ (+, reduction 25-50%)”. This molecule also showed an IC50 in the data set with JFH-1 HCVcc-Luc (HCVcc infection of Huh7.5.1 cells) of 670 nM.

B1: hEP: human apoE dual-domain peptide: helix 4 of N-terminal domain plus major lipid-binding region; expressed in bacteria (protein)
peptide: EELRVRLASHLRKLRKRLLRDADDLQKRLAVYEEQAQQIRLQAEAFQARLKSWFEPLVEDM
In the case of B1, the “Cytotoxicity (cell viability)” value in the data set with Huh7.5.1 cells was “no cytotoxicity”. The “Binding to DMPC (in words)” value in data set [1] (DMPC vesicles, turbidity) is listed as “efficiently bound”. For the same molecule, in the data set with JFH-1 HCVcc-Luc (read-out: 50% inhibitory concentration (IC50) of HCVcc infection, JFH-1 HCVcc-Luc MOI~0.5, peptide present 2 hours, luciferase after 48 hours), the IC50 amounted to 670 nM. Moreover, in the data set on JFH-1 HCVcc-Luc (various MOIs), the “Suppression of HCVcc infection at various MOIs” value is recorded as “robustly suppressed”.
